The values that follow come from US20240182536A1 (MURAL ONCOLOGY, published 2024).

Assay [1] concerns the target T1, IL-18 receptor (IL-18Rα and IL-18Rβ) (UniProt Q13478 19-541; O95256 20-599, limits assumed).
T1 sequence (looked up) 1: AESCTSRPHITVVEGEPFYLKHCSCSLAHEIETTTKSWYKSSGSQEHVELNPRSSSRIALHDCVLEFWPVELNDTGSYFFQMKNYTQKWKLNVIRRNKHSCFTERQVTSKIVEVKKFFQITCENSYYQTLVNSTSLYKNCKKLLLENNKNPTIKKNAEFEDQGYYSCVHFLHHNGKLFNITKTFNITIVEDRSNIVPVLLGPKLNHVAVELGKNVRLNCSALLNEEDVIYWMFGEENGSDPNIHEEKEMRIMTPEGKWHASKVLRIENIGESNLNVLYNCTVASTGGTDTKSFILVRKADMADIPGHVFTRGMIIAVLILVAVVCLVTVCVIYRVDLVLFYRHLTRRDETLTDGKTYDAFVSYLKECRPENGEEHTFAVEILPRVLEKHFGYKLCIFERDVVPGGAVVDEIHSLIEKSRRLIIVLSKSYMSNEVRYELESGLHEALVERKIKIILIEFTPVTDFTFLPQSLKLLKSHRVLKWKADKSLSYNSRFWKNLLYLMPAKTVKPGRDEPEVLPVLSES
T1 sequence (looked up) 2: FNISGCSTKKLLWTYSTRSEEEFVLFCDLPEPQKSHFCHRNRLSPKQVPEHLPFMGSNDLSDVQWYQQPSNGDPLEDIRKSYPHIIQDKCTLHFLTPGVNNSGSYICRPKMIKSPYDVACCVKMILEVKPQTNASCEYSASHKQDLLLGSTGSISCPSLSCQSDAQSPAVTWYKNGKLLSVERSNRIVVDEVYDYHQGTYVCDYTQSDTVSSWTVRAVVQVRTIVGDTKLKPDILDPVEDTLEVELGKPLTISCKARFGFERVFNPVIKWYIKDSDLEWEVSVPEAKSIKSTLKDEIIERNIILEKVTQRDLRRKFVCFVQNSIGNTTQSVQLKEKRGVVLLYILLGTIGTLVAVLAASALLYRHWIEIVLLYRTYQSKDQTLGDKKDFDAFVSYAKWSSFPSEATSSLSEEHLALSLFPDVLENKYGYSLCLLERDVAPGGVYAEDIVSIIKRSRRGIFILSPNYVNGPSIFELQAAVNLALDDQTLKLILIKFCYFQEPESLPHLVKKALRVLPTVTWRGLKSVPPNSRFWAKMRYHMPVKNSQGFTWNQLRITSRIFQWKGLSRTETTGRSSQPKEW
Briefly: cell-based or functional assay.

Assay [2] deals with T2, interleukin 18 binding protein (IL-18BP) (UniProt O95998 31-194).
T2 sequence (looked up): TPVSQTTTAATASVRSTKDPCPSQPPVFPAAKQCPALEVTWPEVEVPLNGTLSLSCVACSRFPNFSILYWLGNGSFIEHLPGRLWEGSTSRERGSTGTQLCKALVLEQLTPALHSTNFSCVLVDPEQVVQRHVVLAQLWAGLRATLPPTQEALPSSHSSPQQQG
Briefly: cell-based or functional assay.

B1: IL-18 variant G3Q, E6S, S55V, T63A, N91T (ligand)
chain: YFQKLSSKLSVIRNLNDQVLFIDQGNRPLFEDMTDSDMRDNAPRTIFIISMYKDVQPRGMAVAISVKSEKISTLSSENKIISFKEMNPPDTIKDTKSDIIFFQRSVPGHDNKMQFESSSYEGYFLASEKERDLFKLILKKEDELGDRSIMFTVQNED
Turning to B1, in assay [1], the “EC50 (pM) - BP, HEK-blue re-screening” value amounted to 0.2 pM. For the same molecule, in assay [2], the “EC50 (pM) + 100 nM BP, HEK-blue re-screening” value (“EC50 (pM) + 100 nM BP” below) turned out to be 35.9 pM and the “Ratio (HEK-blue EC50, + 100 nM BP against - BP)” value (shortened to “Ratio”) stood at 180.

B2: IL-18 variant G3E, E6G, N91M, R104A (ligand)
chain: YFEKLGSKLSVIRNLNDQVLFIDQGNRPLFEDMTDSDMRDNAPRTIFIISMYKDSQPRGMAVTISVKSEKISTLSSENKIISFKEMNPPDMIKDTKSDIIFFQASVPGHDNKMQFESSSYEGYFLASEKERDLFKLILKKEDELGDRSIMFTVQNED
Take B2: in assay [1], the “EC50 (pM) - BP, HEK-blue re-screening” value is 0.17 pM. Moreover, in assay [2], the “EC50 (pM) + 100 nM BP” value amounted to 3.49 pM and the “Ratio” value is 20.5.

B3: IL-18 variant G3Q, E6K, D54S, S55P, T63S, N91S, R104Q (ligand)
chain: YFQKLKSKLSVIRNLNDQVLFIDQGNRPLFEDMTDSDMRDNAPRTIFIISMYKSPQPRGMAVSISVKSEKISTLSSENKIISFKEMNPPDSIKDTKSDIIFFQQSVPGHDNKMQFESSSYEGYFLASEKERDLFKLILKKEDELGDRSIMFTVQNED
Regarding B3, in assay [1], the “EC50 (pM) - BP, HEK-blue re-screening” value turned out to be 0.27 pM. In assay [2], the “EC50 (pM) + 100 nM BP” value worked out at 7.45 pM and the “Ratio” value was determined as 27.6.

B4: IL-18 variant G3Q, E6N, D54Y, S55P, T63S, N91S, R104H (ligand)
chain: YFQKLNSKLSVIRNLNDQVLFIDQGNRPLFEDMTDSDMRDNAPRTIFIISMYKYPQPRGMAVSISVKSEKISTLSSENKIISFKEMNPPDSIKDTKSDIIFFQHSVPGHDNKMQFESSSYEGYFLASEKERDLFKLILKKEDELGDRSIMFTVQNED
In the case of B4, the “EC50 (pM) - BP, HEK-blue re-screening” value in assay [1] is 9.63 pM. In addition, in assay [2], the “EC50 (pM) + 100 nM BP” value is 34.7 pM and the “Ratio” value stood at 3.6.

B5: IL-18 variant G3L, E6Q, D54Y, S55P, T63S, N91S, R104Q (ligand)
chain: YFLKLQSKLSVIRNLNDQVLFIDQGNRPLFEDMTDSDMRDNAPRTIFIISMYKYPQPRGMAVSISVKSEKISTLSSENKIISFKEMNPPDSIKDTKSDIIFFQQSVPGHDNKMQFESSSYEGYFLASEKERDLFKLILKKEDELGDRSIMFTVQNED
For the molecule B5, the “EC50 (pM) - BP, HEK-blue re-screening” value in assay [1] is 1.35 pM. In assay [2], the “EC50 (pM) + 100 nM BP” value was found to be 54.7 pM and the “Ratio” value is 40.5.

B6: IL-18 variant G3E, E6H, R27S, D54A, S55T, T63S, N91F, R104S (ligand)
chain: YFEKLHSKLSVIRNLNDQVLFIDQGNSPLFEDMTDSDMRDNAPRTIFIISMYKATQPRGMAVSISVKSEKISTLSSENKIISFKEMNPPDFIKDTKSDIIFFQSSVPGHDNKMQFESSSYEGYFLASEKERDLFKLILKKEDELGDRSIMFTVQNED
For the molecule B6, the “EC50 (pM) - BP, HEK-blue re-screening” value in assay [1] is 0.34 pM. For the same molecule, in assay [2], the “EC50 (pM) + 100 nM BP” value stood at 3.01 pM and the “Ratio” value was 8.9.

B7: IL-18 variant G3L, E6Q, T63S, N91L, R104T (ligand)
chain: YFLKLQSKLSVIRNLNDQVLFIDQGNRPLFEDMTDSDMRDNAPRTIFIISMYKDSQPRGMAVSISVKSEKISTLSSENKIISFKEMNPPDLIKDTKSDIIFFQTSVPGHDNKMQFESSSYEGYFLASEKERDLFKLILKKEDELGDRSIMFTVQNED
As for B7, the “EC50 (pM) - BP, HEK-blue re-screening” value in assay [1] was determined as 0.03 pM. In assay [2], the “EC50 (pM) + 100 nM BP” value turned out to be 1.67 pM and the “Ratio” value stood at 55.7.

B8: IL-18 variant G3Q, E6H, D54N, S55I, T63S, N91V (ligand)
chain: YFQKLHSKLSVIRNLNDQVLFIDQGNRPLFEDMTDSDMRDNAPRTIFIISMYKNIQPRGMAVSISVKSEKISTLSSENKIISFKEMNPPDVIKDTKSDIIFFQRSVPGHDNKMQFESSSYEGYFLASEKERDLFKLILKKEDELGDRSIMFTVQNED
Consider B8, for which the “EC50 (pM) - BP, HEK-blue re-screening” value in assay [1] turned out to be 0.31 pM. Further, in assay [2], the “EC50 (pM) + 100 nM BP” value was determined as 5.23 pM and the “Ratio” value was 16.9.

B9: IL-18 variant G3Y, E6N, N91Y, R104S (ligand)
chain: YFYKLNSKLSVIRNLNDQVLFIDQGNRPLFEDMTDSDMRDNAPRTIFIISMYKDSQPRGMAVTISVKSEKISTLSSENKIISFKEMNPPDYIKDTKSDIIFFQSSVPGHDNKMQFESSSYEGYFLASEKERDLFKLILKKEDELGDRSIMFTVQNED
As to B9, the “EC50 (pM) - BP, HEK-blue re-screening” value in assay [1] amounted to 0.09 pM. Moreover, in assay [2], the “EC50 (pM) + 100 nM BP” value is 2.89 pM and the “Ratio” value was determined as 32.1.

B10: IL-18 variant E6D, D54T, S55W, T63S, N91S, R104T (ligand)
chain: YFGKLDSKLSVIRNLNDQVLFIDQGNRPLFEDMTDSDMRDNAPRTIFIISMYKTWQPRGMAVSISVKSEKISTLSSENKIISFKEMNPPDSIKDTKSDIIFFQTSVPGHDNKMQFESSSYEGYFLASEKERDLFKLILKKEDELGDRSIMFTVQNED
Consider B10, for which the “EC50 (pM) - BP, HEK-blue re-screening” value in assay [1] stood at 3.42 pM. Moreover, in assay [2], the “EC50 (pM) + 100 nM BP” value was found to be 62.8 pM and the “Ratio” value worked out at 18.4.

B11: IL-18 variant G3I, E6Q, N91M, R104Y (ligand)
chain: YFIKLQSKLSVIRNLNDQVLFIDQGNRPLFEDMTDSDMRDNAPRTIFIISMYKDSQPRGMAVTISVKSEKISTLSSENKIISFKEMNPPDMIKDTKSDIIFFQYSVPGHDNKMQFESSSYEGYFLASEKERDLFKLILKKEDELGDRSIMFTVQNED
Consider B11, for which the “EC50 (pM) - BP, HEK-blue re-screening” value in assay [1] stood at 0.07 pM. Further, in assay [2], the “EC50 (pM) + 100 nM BP” value turned out to be 3.77 pM and the “Ratio” value came out at 53.9.

B12: IL-18 variant G3D, E6Q, R27S, K53R, D54A, S55R, T63S, N91Q (ligand)
chain: YFDKLQSKLSVIRNLNDQVLFIDQGNSPLFEDMTDSDMRDNAPRTIFIISMYRARQPRGMAVSISVKSEKISTLSSENKIISFKEMNPPDQIKDTKSDIIFFQRSVPGHDNKMQFESSSYEGYFLASEKERDLFKLILKKEDELGDRSIMFTVQNED
Consider B12, for which the “EC50 (pM) - BP, HEK-blue re-screening” value in assay [1] was found to be 4.22 pM. For the same molecule, in assay [2], the “EC50 (pM) + 100 nM BP” value amounted to 25.7 pM and the “Ratio” value stood at 6.1.

B13: IL-18 variant G3Q, E6N (ligand)
chain: YFQKLNSKLSVIRNLNDQVLFIDQGNRPLFEDMTDSDMRDNAPRTIFIISMYKDSQPRGMAVTISVKSEKISTLSSENKIISFKEMNPPDNIKDTKSDIIFFQRSVPGHDNKMQFESSSYEGYFLASEKERDLFKLILKKEDELGDRSIMFTVQNED
As for B13, the “EC50 (pM) - BP, HEK-blue re-screening” value in assay [1] turned out to be 0.05 pM. Also, in assay [2], the “EC50 (pM) + 100 nM BP” value was 8.61 pM and the “Ratio” value stood at 172.

B14: IL-18 variant E6G, D54A, S55K, T63S, N91K, Q114R (ligand)
chain: YFGKLGSKLSVIRNLNDQVLFIDQGNRPLFEDMTDSDMRDNAPRTIFIISMYKAKQPRGMAVSISVKSEKISTLSSENKIISFKEMNPPDKIKDTKSDIIFFQRSVPGHDNKMRFESSSYEGYFLASEKERDLFKLILKKEDELGDRSIMFTVQNED
Turning to B14, the “EC50 (pM) - BP, HEK-blue re-screening” value in assay [1] amounted to 0.1 pM. In assay [2], the “EC50 (pM) + 100 nM BP” value turned out to be 2.17 pM and the “Ratio” value was found to be 21.7.

B15: IL-18 variant G3S, E6G, D54V, S55K, T63S, N91Y, R104T (ligand)
chain: YFSKLGSKLSVIRNLNDQVLFIDQGNRPLFEDMTDSDMRDNAPRTIFIISMYKVKQPRGMAVSISVKSEKISTLSSENKIISFKEMNPPDYIKDTKSDIIFFQTSVPGHDNKMQFESSSYEGYFLASEKERDLFKLILKKEDELGDRSIMFTVQNED
With B15, in assay [1], the “EC50 (pM) - BP, HEK-blue re-screening” value worked out at 0.21 pM. In addition, in assay [2], the “EC50 (pM) + 100 nM BP” value was 4.87 pM and the “Ratio” value was 23.2.
